Substitutions are numbered along the chain they refer to.
Columns and labels:
EpICD cleavage = EpICD cleavage and cellular localization (confocal immunofluorescence, Western blot); type: cell-based, human; conditions: for EpICD cleavage: 24 h, TAPI 40 μM
Procedure: Immunofluorescent Staining. Cells cultured on cover slips were fixed in paraformaldehyde, washed, and then blocked with 1% bovine serum albumin in PBS for 10 min. Cells were incubated at room temperature with primary antibodies in 1% bovine serum albumin. After 1 h incubation, cells were washed and incubated with fluorescein isothiocyanate (FITC) goat anti-mouse antibody (Jackson ImmunoResearch Laboratories), Alexafluor488 goat-anti-mouse or Alexaflour568 goat-anti-rabbit (INVITROGEN®) antibodies. 4′,6-Diamidino-2-phenylindole (DAPI) was added for nuclear counter staining.
(§1) Immunoprecipitation and Western Blot Analysis. […] The supernatants were immunoprecipitated using anti-EpCAM antibodies.

HCT116 sphere cells = assay: Spheroid (tumorsphere formation) assay; type: cell-based, human
Procedure: Spheroid Assay. For spheroid formation, culture cells were disassociated into single cells. 5×10^3 cells were seeded at an ultra-low 6-well plate (CORNING™ for 6 days and were maintained in DMEM/F12 supplemented with B27 (INVITROGEN®), EGF (10 ng/ml) and FGF (25 ng/ml) twice a week. The spheres were counted under a microscope. For serum-induced differentiation assay, tumorspheres were cultured in matrigel-coated plate supplemented with DMEM containing 10% FBS for 7 days to induce the differentiation process.

[1] = system: vimentin, snail, and slug; assay: EMT gene expression; type: cell-based, human
Procedure: as §1
RNA Extraction and Quantitative Real-Time RT-PCR. Total RNAs were prepared from the cell lines using ULTRASPEC RNA isolation reagent (Biotecx Laboratories, Houston, Tex.). cDNAs were reverse-transcribed using Super-Script III RNaseH-reverse transcriptase (INVITROGEN®, Carlsbad, Calif.) according to the manufacturer's instructions. Quantitative RT-PCR was performed by using the LightCycler480 System (Roche Applied Science). The gene expression level of each sample was normalized to the expression level of GAPDH in the same sample. The reactions were performed in triplicate, and S.D. values were calculated.

release of EpEX = assay: Release of EpEX into HCT116 culture supernatants (immunoprecipitation and Western blot); type: cell-based, human; conditions: HCT116 cells, 24 h; DAPT 50 μM, TAPI 40 μM
Description: as §1

[2] = system: c-MYC, OCT4, NANOG, and SOX2 promoters; assay: Luciferase reporter assay of reprogramming gene promoters; type: cell-based, human
Procedure: Luciferase Reporter Assay. Cells were seeded in a plate and co-transfected with pcDNA3.1, EpCAM, EpICD, or EpEX-expressing vectors (400 ng) and pGL4-Oct4-Luc, Nanog-Luc, Sox2-Luc, or c-Myc-Luc-expressing plasmid (100 ng) by PolyJET for 24 h. Promoter activities were measured by the Dul-Glo Luciferase kit (Promega), and the transfected efficiency was normalized by co-transfection with pRL-TK (20 ng) as an internal control.

tumor invasiveness = assay: Invasion assay (Matrigel transwell); type: cell-based
Procedure: Colony Formation and Invasion Assay. For colony formation assay, cells were seeded at a density of 5×10^3 in 6-well plate for 10 day, followed by fixing and staining with crystal violet. For invasion assay, cells (1×10^5) were seeded at a transwell insert (8-μm polycarbonate Nucleopore filters, Corning) coated with Matrigel (BD Biosciences) at room temperature for 30 min to form a genuine reconstituted basement membrane. After 24 h incubation, cells were fixed with methanol for 10 min, and non-invaded cells were then removed by cotton swap. The invaded cells were observed by staining with DAPI, imaged under an inverted fluorescent microscopy (Zeiss), and quantified by ImageJ software.

[3] = system: HCT116 and tumorsphere (HCT116 sphere) cells; assay: Hypodiploid DNA content by flow cytometry with PI staining; type: cell-based, human; conditions: tumor and tumorsphere cells
Procedure: (§2) Apoptosis Assays. Cells were separately seeded and treated with 0-20 μg/ml mAbs for 6 h. Apoptotic cells were detected by Annexin V-FITC and PI and analyzed by a flow cytometer (BD imnmmunocytometry systems, San Jose, Calif.). Early apoptosis was measured with the Annexin V-FITC Apoptosis Detection kit II (BD Pharmingen, La Jolla, Calif.). Apoptotic nuclei were detected with propidium iodide (PI) staining.

[4] = system: SAS-derived oral cancer xenografts; assay: SAS-derived oral cancer xenograft antitumor efficacy; conditions: n=6
Procedure: Animal Model for Analysis of Antitumor Efficacy. […] Treatments were administered through tail vein injection, 10 mg/kg twice a week, for 4 consecutive weeks, with a total dose of 80 mg/kg. […] The tumor volumes were calculated as length×(width)^2×0.52.

[5] = system: EpCAM mutants (Y95, D96 on EGF-II domain); conditions: mutations in positions Y95 or D96 on EGF-II domain; 1 μg/ml antibody
Procedure: HEK293 cells at 80%-90% confluency in 6-well plates were transfected with plasmids of various EpCAMs. After two days transfection, the cells were washed with PBS. Cells were extracted with RIPA buffer, supplemented with a protease inhibitor mixture tablet and spun at 20,000 g for 30 min at 4° C. […] The signals were developed using enhanced chemiluminescence reagents (ECL) (Thermo Scientific, Rockford, Ill.).

[6] = system: SAS and HCT116 cell lines; assay: Apoptosis assay, Annexin V-FITC and PI flow cytometry; type: cell-based, human; conditions: 0-20 μg/ml, 6 h
Procedure: as §2

[7] = system: human cancer cells (SAS, NPC039, HCT116, SKOV3); assay: Cellular ELISA, Western blot and FACS binding to cancer cell lines; conditions: Western blot, FACS
Procedure: ELISA. 96-well plates (Corning Costar, St. Louis, Mo.) were seeded with SAS (oral carcinoma), NPC, HCT116 (colon cancer), SKOV3 (ovarian cancer cell line), NNM and HUVEC cells. The plates fixed with 2% paraformaldehyde and blocked with 1% bovine serum albumin. OCAb9-1 was added to the plates and incubated for 1 h. The plates were then washed with PBS containing 0.1% (w/v) TWEEN® 20 (PBST0.1) and incubated with horseradish peroxidase-conjugated anti-mouse IgG (Jackson ImmunoResearch Laboratories) for another 1 h. After washing, the plates were incubated with substrate solution o-phenylenediamine dihydrochloride (SIGMA™). The reaction was stopped by adding 3 N HCl, and the plates were read using a microplate reader at 490 nm.
Flow Cytometry. SAS, HCT116 and NNM were dissociated with 0.25% trypsin-EDTA (1 mM) (INVITROGEN®) for 1-3 min. Cells were washed with fluorescence-activated cell sorting buffer (PBS containing 1% fetal calf serum) and then incubated for 1 h at 4° C. in fluorescence-activated cell sorting buffer with the OCAb9-1 and EpAb mAbs at dilutions that ranged from […]. Phycoerythrin-conjugated goat anti-mouse IgG was used as a secondary antibody (dilution 1:250; Jackson ImmunoResearch Laboratories (West Grove, Pa.) for 30 min at 4° C. After the final wash, the cells were re-suspended with 1% FBS in PBS and analyzed by flow cytometry (BD, San Jose, Calif.). […]

CCD-1112Sk normal cells = assay: Cellular ELISA binding to normal foreskin cells; design: species or system human
[8] = HCT116 cells, sEpEX 2.5, 5 μg/ml

## C[C@H](NC(=O)Cc1cc(F)cc(F)c1)C(=O)N[C@H](C(=O)OC(C)(C)C)c1ccccc1 [DAPT]
EpICD cleavage; 293T/EpCAM-v5 cells
  expression of soluble EpICD-v5 (10 kDa): reduced
EpICD cleavage; HCT116 cells, DAPT 50 μM
  EpICD cleavage: inhibited EpICD cleavage
  soluble EpICD signals in cytoplasm and nucleus: blocked
HCT116 sphere cells
  sphere-forming capacity: decreasing
[1]
  expressions of vimentin, snail, and slug: suppressed
Release of EpEX
  release of EpEX: blocked the release of EpEX
[2]
  EpCAM-induced transcriptional activities of c-MYC, OCT4, NANOG, and SOX2: blocked
Tumor invasiveness
  tumor invasiveness: decreasing

## TAPI
EpICD cleavage; HCT116 cells, DAPT 50 μM
  EpICD cleavage: inhibited EpICD cleavage
Release of EpEX
  release of EpEX: blocked the release of EpEX

B1: sEpEX: soluble extracellular domain of EpCAM (protein, UniProt P16422 24-265, looked up)
extracellular domain: QEECVCENYKLAVNCFVNNNRQCQCTSVGAQNTVICSKLAAKCLVMKAEMNGSKLGRRAKPEGALQNNDGLYDPDCDESGLFKAKQCNGTSMCWCVNTAGVRRTDKDTEITCSERVRTYWIIIELKHKAREKPYDSKSLRTALQKEITTRYQLDPKFITSILYENNVITIDLVQNSSQKTQNDVDIADVAYYFEKDVKGESLFHSKKMDLTVNGEQLDLDPGQTLIYYVDEKAPEFSMQGLK
modifications: extracellular domain
notes: soluble extracellular domain of EpCAM
EpICD cleavage; [8]
  induction of EpICD cleavage: inductions
[1]; [8]
  induction of vimentin expression: inductions
[2]; HCT116 cells, sEpEX 2 μg/ml
  reporter activities of c-MYC, OCT4, NANOG, and SOX2: induced reporter activities

B2: EpAb2-6: one of five newly generated anti-EpCAM mAbs; VH SEQ ID NO: 2, VL SEQ ID NO: 3 (antibody, listed as Homo sapiens, V domains shown)
VH: EVQLVESGPELKKPGETVKISCKASGYTFTDYSMHWVKQAPGKGLKWMGWINTETGEPTFADDFKGRFAFSLETSARTTYLQINNLKNEDTATYFCARTAVYWGQGTSLTVSS
VL: DIQLTQSPSSLSASLGERVSLTCRASQEISVSLSWLQQKPDGTIKRLIYATSTLDSGVPKRFSGSRSGSDYSLTISSLESEDFADYYCLQYASYPWTFGGGTKLEIKRADAAPTVS
[3]
  hypodiploid DNA content: induced hypodiploid DNA content
HCT116 sphere cells; 6 days treatment
  tumorsphere formation: suppressed tumorsphere formation effectively
[4]; 10 mg/kg i.v. twice a week
  tumor size of control PBS group relative to EpAb2-6 group: 1.5 fold
[4]; SAS xenograft
  median overall survival of tumor-bearing mice: 71 days
[5]
  relative binding activity to EpCAM mutants vs wild type: markedly reduction
[6]
  induction of cancer cell apoptosis: could induce cancer cell apoptosis

B3: hEpAb2-6: CDRs of EpAb2-6 grafted onto human IgG1 backbone; VH SEQ ID NO: 24, VL SEQ ID NO: 25 (antibody, V domains shown)
VH: VKLQESGPELKKPGETVKISCKASGYTFTDYSMHWVKQAPGKGLKWMGWINTETGEPTYADDFKGRFAFSLETSASTAYLQINNLKNEDTATYFCARTAVYWGQGTTVTVSS
VL: B2 VL with L4M, K39E, A84V
modifications: human IgG1 backbone; Humanized VH domain; Humanized VL domain
[7]
  recognition of (binding to) human cancer cells: recognized both SAS and HCT116 cancer cells
[6]
  induction of cancer cell apoptosis: induced cancer cell apoptosis
CCD-1112Sk normal cells
  recognition of CCD-1112Sk normal cells: not CCD-1112Sk normal cells

From patent publication US9187558B2, “Anti-epithelial cell adhesion molecule (EpCAM) antibodies and methods of use thereof” (ACADEMIA SINICA, priority 2012, dated 2015)
